Residue numbers refer to the chain shown, from its start. Blank lines part the entries; values can stand above or below the binder they belong to.
What was measured:
[1] = target: T1, b-hSOD1-B (amino acids 1 to 77) (human, UniProt P00441 2-78); test: ELISA, captured b-hSOD1 truncations
T1 construct: also called B truncation; not shown: N-terminal thioredoxin (trx) domain from vector pET32-a-myc; C-terminal myc and 6 histidine tags

[2] = target: T2, b-hSOD1-C (amino acids 1 to 116) (human, UniProt P00441 2-117); test: ELISA, captured b-hSOD1 truncations
T2 construct: also called C truncation; not shown: N-terminal thioredoxin (trx) domain from vector pET32-a-myc; C-terminal myc and 6 histidine tags

[3] = target: T3, b-hSOD1-D (amino acids 39 to 153) (human, UniProt P00441 40-154); test: ELISA, captured b-hSOD1 truncations
T3 construct: also called D truncation; not shown: N-terminal thioredoxin (trx) domain from vector pET32-a-myc; C-terminal myc and 6 histidine tags

[4] = target: T4, b-hSOD1-I (amino acids 39 to 116) (human, UniProt P00441 39-117); test: ELISA, captured b-hSOD1 truncations
T4 construct: also called I truncation; not shown: N-terminal thioredoxin (trx) domain from vector pET32-a-myc; C-terminal myc and 6 histidine tags

[5] = target: T5, hSOD1 purified from human erythrocytes (human, UniProt P00441 2-154); test: Octet QK, hSOD1 coupled to biosensor, antibody in solution
T5 construct: Bought from Sigma; also called E-hSOD1
Experimental: Affinity of antibodies was determined using an Octet QK (ForteBio) biomolecular interaction instrument. […] The Octet QK uses biosensors to assess mass increases/decreases and determine rates of association and disassociation. A biosensor coated with amine-reactive chemistry was introduced into a solution containing E-hSOD1 or b-hSOD1 to covalently link these proteins to the surface of the biosensor. Unbound hSOD1 was washed away and the coated biosensor was introduced into a solution containing anti-SOD1 monoclonal antibodies at which time Kₒₙ was determined. The sensor was then introduced into a buffer solution containing no antibody and the Koff determined Using Kₒₙ and Koff an affinity (KD) was calculated.
Affinity analysis was performed on all 13 lead-candidate anti-hSOD1 human monoclonal antibodies.

[6] = target: T6, bacterially-expressed hSOD1 (human, UniProt P00441 2-154); test: as above
T6 construct: Not fully metallated, expected to be partly misfolded; also called b-hSOD1; GST-b-hSOD1; not shown: N-terminal glutathione sulfotransferase (GST) domain from vector pGEX-4T-3

[7] = target: mouse SOD1 expressed in mouse neuroblastoma cells (MNA) (mouse, UniProt P08228 2-154); test: IP from mouse neuroblastoma (MNA) cell lysate, immunoblot rabbit anti-SOD1
Experimental: Expression of SOD1 in mouse neuroblastoma cells (MNA) was assessed by SDS-PAGE followed by immunoblot with rabbit anti-SOD1 (lysate). The position of migration of SOD1 as well as position of a non-specific high molecular weight (HMW) band is indicated to the right of the immunoblots. MNA lysates were precipitated with 11 human anti-hSOD1 antibodies as well as a control, isotype matched irrelevant antibody (Neg control) which are listed above the immunoblots.

b-hSOD1-OX = target: T7, b-hSOD1-OX (oxidized with 10 mM hydrogen peroxide for 24 hours; residues not given ; Oxidised with 10 mM hydrogen peroxide for 24 hours. The oxidised residues are not stated, so the letters are left …); test: ELISA on coated protein, antibody titrated, OD 405nm
T7 construct: also called oxidized bacterially-expressed hSOD1 (GST fusion); not shown: N-terminal GST domain of pGEX-4T-3 and the vector-derived linker
T7 sequence (chain, as listed by the source limits assumed): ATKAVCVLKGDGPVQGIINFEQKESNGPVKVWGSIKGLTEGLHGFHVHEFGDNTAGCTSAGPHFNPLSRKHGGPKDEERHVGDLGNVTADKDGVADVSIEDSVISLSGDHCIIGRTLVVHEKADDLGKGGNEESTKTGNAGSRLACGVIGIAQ

T3 sequence (P00441 40-154): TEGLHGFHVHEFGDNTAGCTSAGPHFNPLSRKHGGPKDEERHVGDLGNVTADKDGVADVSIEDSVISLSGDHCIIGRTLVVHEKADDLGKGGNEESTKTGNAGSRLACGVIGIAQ
T4 sequence (P00441 39-117): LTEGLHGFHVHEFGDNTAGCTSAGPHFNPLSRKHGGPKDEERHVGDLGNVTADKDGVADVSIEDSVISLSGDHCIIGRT
T2 sequence (P00441 2-117): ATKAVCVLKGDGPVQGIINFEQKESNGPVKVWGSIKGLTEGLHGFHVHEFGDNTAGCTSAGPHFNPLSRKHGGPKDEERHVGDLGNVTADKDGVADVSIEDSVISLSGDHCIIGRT
T6 sequence (P00441 2-154): as the sequence (chain, as listed by the source limits assumed) above
T5 sequence (P00441 2-154): as the sequence (chain, as listed by the source limits assumed) above
T1 sequence (P00441 2-78): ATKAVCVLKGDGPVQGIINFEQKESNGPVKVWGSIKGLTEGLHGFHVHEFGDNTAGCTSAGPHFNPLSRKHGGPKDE

B2: 311-3 (antibody, V domains shown)
VH: QVQLQQWGAGLLKPSETLSLTCAVYGGSFSGYYWNWIRQPPGMGLEWIGEIHQSGGPHYNPSLKSRVSISVDTSKNQVNLKLSSVTAADTAIYYCTELDDYWGQGTLVTVSS
VL: EIVLTQSPATLSLSPGERATLSCRASQSVSSYLAWYQQKPGQAPRLLIYNASNRATGIPARFSGSGSGTDFTLTIGSLEPEDFAVYYCQQRSNWPRTFGQGTKVEIK
notes: Human IgG kappa monoclonal from HuMab mouse hybridoma
binding result [7]: no binding

B4: 306-155 (antibody, V domains shown)
VH: EVQLVQSGAEVKKPGESLKISCKGSGYSFTSYWIGWVRQMPGKGLEWMGIIYPGDSDTRYSPSFQGQVTISADKSISTAYLQWSSLKASDTAMYYCARQGSGWYGNYFDYWGQGTLVTVSS
VL: EIVLTQSPGTLSLSPGERATLSCRASQSFSRGYLAWYQQKPGQAPRLLIYGASSRVTGIPDRFSGSGSGTDFTLTISRLEPEDFAVYYCQQYDSSPYTFGQGTKLEIK
notes: Human IgG kappa monoclonal from HuMab mouse hybridoma; Conformation-dependent antibody
binding result [7]: no binding

B6: 358-11 (antibody, V domains shown)
VH: QVQLVESGGGVVQPGRSLRLSCAASGFTFSNYGIHWVRQAPGKGLEWVAIIWHDGSNSYYVDSVKGRFTMSRDNSKNTVYLQMNSLRAEDTAVYFCARIIGGAFDIWGQGTMVTVSS
VL: DIQMTQSPSSLSASVGDRVTITCRASQGISSWLAWYQQKPEKAPKSLIYAASSLQSGVPSRFSGSGSGTDFTLTISSLQPEDFATYYCQQYNSYPITFGQGTRLEIK
notes: as for B2
binding result [7]: no binding

B8: 591-37 (antibody, V domains shown)
VH: EVQLVQSGGGLVHPGGSLRLSCAGSGFTFSRYALHWVRQAPGKGLEWVSAIGIGGGTFYADSVKGRFTISRDNAKNSLYLQMNSLRAEDMAVYYCARDTYYDFFDAFDIWGQGTMVTVSS
VL: B6 VL with N92D, I96L, Q100G, R103K, L104V
notes: as for B2
binding result [7]: no binding

B9: 591-33 (antibody, V domains shown)
VH: EVQLVESGGGLVQPGGSLRLSCAASGFTFSRYWMSWVRQAPGKGLEWMANIKQDGSETHYVDSVKGRFTISRDNAKNSLYLQMNSLRAEDTAVYYCAIGDYWGQGTLVTVSS
VL: B6 VL with G28D, N92K, I96L, Q100G, R103K, L104V
notes: as for B2
binding result [7]: no binding

B11: 312-19 (antibody, V domains shown)
VH: QVQLVQSGAEVKKPGSSVKVSCKASGGTFNNFVIGWVRQAPGQGLEWMGRIIPILDIANYAQKFQGRVTITADKSTSTVYMELNSLRSEDTAVYYCARTGNYYKPYDYWGQGTLVTVSS
VL: EIVLTQSPDFQSVTPKEKVTITCRASQSIGSSLHWYQQKPDQSPKLLIKYASQSFSGVPSRFSGSGSGTDFTLTINSLEAEDAAAYYCHQSSSLPITFGQGTRLEIK
notes: as for B4
binding result [7]: no binding

More lines, now with the values ahead:

binding result [1]: no binding | binding result [2]: no binding | binding result [3]: no binding | binding result [4]: no binding | Kd [5]: 3.5 nM | Kd [6]: 19 nM | binding result [7]: binds
B1: 14-173 (antibody, V domains shown)
VH: EVQLVESGGGLVQPGGSLRLSCAASGFTFSSFWMSWVRQAPGKGLEWVANIKHDGSEQDYVDSVKGRFTISRDNAKNSLYLQMNSLRAEDTAVYYCARGGIWFGPWGQGTLVTVSS
VL: VIWMTQSPSLLSASTGDRVTISCRMSQGISSYLAWYQQKPGKAPEVLIYAVSTLQSGVPSRFSGSGSGTDFTLTISCLQSEDFATYYCQQYYSFPYTFGQGTKLEIK
notes: as for B4

binding result [7]: binds
B3: 358-22 (antibody, V domains shown)
VH: QVQLVESGGGVVQPGRSLRLSCAASGFTFRSYGMHWVRQAPGKGLEWVTLIWYDGSNKYYADSVKGRFTISRDNSKNTLYLQMNSLRVEDTAVYYCAREGFNWDAFDIWGQGTMVTVSS
VL: B4 VL with F29V, S30R, R31I, G32S, A52T, S53F, V56A, D93G, P96M
notes: as for B4

binding result [1]: no binding | binding result [2]: no binding | binding result [3]: no binding | binding result [4]: no binding | Kd [5]: 8.8 nM | Kd [6]: 1.2 nM | binding result (b-hSOD1-OX): binds
B5: 303-8 (antibody, V domains shown)
VH: QVQLVQSGAEVKKPGSSVKVSCKASGGSFSIYVISWVRQAPGQGLEWMGRIIPILGTTNYAQKFQGRVTITADKSTSTAYMELSSLRSEDTAVYYCARPDSPNHSNTFDYWGQGTLVTVSS
VL: B6 VL with A50G, I96Y, R103K
notes: as for B4

binding result [7]: no binding
B7: 114-41 (antibody, V domains shown)
VH: QVQLVQSGAEVKTPGASVKVSCKASGYTFTSFGISWVRQAPGQGLEWMGWISVYNDYTNYAQKFQGRVTMTTDTSTSTAYMELRSLRSDDTAMYYCARKRGGDMDYWGQGTLVTVSS
VL: DIQMTQSPSSVSASVGDRVTITCRASQDISSWLAWYQHKPGKAPKLLIYLASSLQSGVPSRFSGSGSGTDFTLTISSLQPEDFATYYCQQANSFPWTFGQGTKVEIK
notes: as for B4

binding result [7]: no binding
B10: 597-120 (antibody, V domains shown)
VH: EVHLVESGGGLVQSGGSLRLSCAASGFSISGYWMSWVRQAPGKGLEWVANIKQDGGEKYYGDSVKGRFTISRDNAENSLYLQMSSLRAEDTAVYYCVMAGGLDYWGQGALVTVSS
VL: EIVLTQSPATLSLSPGERATLSCRASQSVSSYLAWYQQKPGQAPRLLIYDASNRATGIPARFSGSGSGTDFTLTISSLEPEDFAVYYCQQRSNWYTFGQGTKLEIK
notes: as for B4
